Source: patent US20230390362A1, “USE OF TRIGONAL AGONIST HAVING ACTIVITIES TO ALL OF GLUCAGON, GLP-1, AND GIP RECEPTORS IN TREATMENT OF SEQUELAE FOLLOWING RESPIRATORY INFECTIOUS DISEASES” (HANMI PHARM. CO., LTD., priority 2020, published 2023)
Positions of bridges follow the written chain, without caps; N, C: chain ends. Non-standard residues stand in square brackets, D forms with d. No end group written: not given here. *: point of attachment. Acetyl(2-(4-imidazolyl)) = O=C(Cc1c[nH]cn1)*; Aib = CC(C)(N)C(=O)O

T1: human GIP receptor (human, UniProt P48546 22-466)
T1 sequence (looked up): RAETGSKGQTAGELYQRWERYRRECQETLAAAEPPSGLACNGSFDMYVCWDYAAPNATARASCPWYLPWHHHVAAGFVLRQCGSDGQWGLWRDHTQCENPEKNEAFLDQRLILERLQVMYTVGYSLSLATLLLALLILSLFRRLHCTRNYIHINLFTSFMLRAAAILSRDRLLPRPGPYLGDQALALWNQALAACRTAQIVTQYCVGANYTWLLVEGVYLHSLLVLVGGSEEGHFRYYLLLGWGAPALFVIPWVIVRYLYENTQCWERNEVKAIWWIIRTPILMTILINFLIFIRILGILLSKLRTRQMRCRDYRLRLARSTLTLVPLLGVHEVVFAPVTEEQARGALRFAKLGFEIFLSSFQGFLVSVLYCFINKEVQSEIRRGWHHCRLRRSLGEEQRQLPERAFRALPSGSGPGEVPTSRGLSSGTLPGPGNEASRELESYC


Assays:
Assay in all cases: cell-based or functional assay
human GLP-1 receptor = human GLP-1 receptor (human, UniProt P43220 24-463)
human GCG receptor = human GCG receptor (human, UniProt P47871 26-477)
human GIP receptor = molecular target: T1, human GIP receptor

Sequence of human GCG receptor (P47871 26-477): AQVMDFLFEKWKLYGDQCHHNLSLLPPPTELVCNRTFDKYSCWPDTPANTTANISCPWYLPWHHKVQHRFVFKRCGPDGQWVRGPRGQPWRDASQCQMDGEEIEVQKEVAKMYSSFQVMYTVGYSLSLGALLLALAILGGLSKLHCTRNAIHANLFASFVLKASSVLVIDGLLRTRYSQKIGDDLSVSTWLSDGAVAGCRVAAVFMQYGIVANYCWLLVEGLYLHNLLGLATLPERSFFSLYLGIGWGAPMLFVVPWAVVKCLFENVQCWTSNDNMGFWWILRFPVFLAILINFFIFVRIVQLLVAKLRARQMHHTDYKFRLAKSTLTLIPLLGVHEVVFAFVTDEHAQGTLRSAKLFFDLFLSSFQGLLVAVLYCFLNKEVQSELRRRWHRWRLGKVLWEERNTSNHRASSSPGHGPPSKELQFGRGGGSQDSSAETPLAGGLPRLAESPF

| Binder | In vitro activity relative to native peptide (%), vs. GLP-1 (cAMP EC50) (human GLP-1 receptor) | In vitro activity relative to native peptide (%), vs. Glucagon (cAMP EC50) (human GCG receptor) | In vitro activity relative to native peptide (%), vs. GIP (cAMP EC50) (human GIP receptor) |
| --- | --- | --- | --- |
| H[Aib]QGTFTSDYSKYLDEKRQKEFVQWLLNTC (bridge 16-20) [trigonal agonist of SEQ ID NO: 51] | 14.4% | 2% | 0.1% |
| H[Aib]QGTFTSDYSKYLDECRQKEFVQWLLNGGPSSGAPPPSG (bridge 16-20) [trigonal agonist of SEQ ID NO: 37] | 236% | 6.21% | 2.2% |
| H[Aib]QGTFTSDYSKYLDEKRQKEFVNWLLAQKC (bridge 16-20) [trigonal agonist of SEQ ID NO: 34] | 19.1% | 0.92% | 0.6% |
| H[Aib]QGTFTSDYSKYLDEKRAKEFVQWLLDHHPSSGQPPPSC (bridge 16-20) [trigonal agonist of SEQ ID NO: 50] | 67.4% | 50.5% | 2.7% |
| H[Aib]EGTFTSDYSIAMDEIHQKDFVNWLLAQC (bridge 16-20) [trigonal agonist of SEQ ID NO: 53] | 161% | 8.4% | 1.3% |
| H[Aib]QGTFTSDKSKYLDERACQDFVQWLLDGGPSSGAPPPS [trigonal agonist of SEQ ID NO: 40] | 75.2% | < 0.1% | < 0.1% |
| Y[Aib]QGTFTSDYSKYLDEKRAKEFVQWLLDHHPSSGQPPPSC (bridge 16-20) [trigonal agonist of SEQ ID NO: 42] | 33.9% | 206% | 7.8% |
| H[Aib]QGTFTSDVSSYLDGQAAKEFVAWLLKGC [trigonal agonist of SEQ ID NO: 6] | 17% | < 0.1% | < 0.1% |
| HGQGTFTSDCSKQLDGQAAQEFVAWLLAGGPSSGAPPPS [trigonal agonist of SEQ ID NO: 44] | 1.3% | < 0.1% | < 0.1% |
| HGQGTFTSDCSKYLDGQRAQEFVAWLLAGGPSSGAPPPS [trigonal agonist of SEQ ID NO: 47] | 2.4% | < 0.1% | < 0.1% |
| HGQGTFTSDCSKYMDGQAAQDFVAWLLAGGPSSGAPPPS [trigonal agonist of SEQ ID NO: 45] | 6.6% | < 0.1% | < 0.1% |
| HGQGTFTSDCSKYLDEQHAQEFVAWLLAGGPSSGAPPPS [trigonal agonist of SEQ ID NO: 46] | 1.4% | < 0.1% | < 0.1% |
| HGQGTFTSDCSKYLDGQRAQDFVNWLLAGGPSSGAPPPS [trigonal agonist of SEQ ID NO: 48] | 1.5% | < 0.1% | < 0.1% |
| {Acetyl(2-(4-imidazolyl))}-[Aib]QGTFTSDKSSYLDERAAQDFVQWLLDGGPSSGAPPPSS [trigonal agonist of SEQ ID NO: 38] | 2.3% |  |  |
| H[Aib]QGTFTSDYSIAMDEIHQKDFVNWLLAQC (bridge 16-20) [trigonal agonist of SEQ ID NO: 55] | 27.1% | 0.7% | 2.4% |
| H[Aib]QGTFTSDVSSYLLGQQQKEFIAWLVKGC [trigonal agonist of SEQ ID NO: 4] | 8.5% | < 0.1% | < 0.1% |
| H[Aib]QGTFTSDKSKYLDECAAQDFVQWLLDGGPSSGAPPPS [trigonal agonist of SEQ ID NO: 41] | 34.3% | < 0.1% | < 0.1% |
| H[Aib]QGTFTSDYSIAMDEIHQKDFVNWLLNTKC (bridge 16-20) [trigonal agonist of SEQ ID NO: 35] | 7.5% | < 0.1% | 1.3% |
| H[Aib]QGTFTSDYSKYLCEKRQKEFVQWLLNGGPSSGAPPPSG (bridge 16-20) [trigonal agonist of SEQ ID NO: 36] | 37.4% | 0.39% | 0.2% |
| H[Aib]QGTFTSDYSKYLDGQHAQCFVAWLLAGGGPSSGAPPPS [trigonal agonist of SEQ ID NO: 39] | 13.9% | 0.53% | < 0.1% |
| Y[Aib]QGTFTSDYSKYLDEKRAKEFVQWLLDHHCSSGQPPPS (bridge 16-20) [trigonal agonist of SEQ ID NO: 43] | 12.6% | 88.4% | 3.7% |
| {Acetyl(2-(4-imidazolyl))}-[Aib]QGTFTSDYSICMDEIHQKDFVNWLLNTK (bridge 15-19) [trigonal agonist of SEQ ID NO: 49] | 29.8% | < 0.1% | 3.3% |
| H[Aib]QGTFTSDYSKYLDEKRQKEFVQWLLDTC (bridge 16-20) [trigonal agonist of SEQ ID NO: 52] | 44.1% | 7.5% | 0.3% |
| H[Aib]QGTFTSDVSSYLDGQAAKEFIAWLVKGC [trigonal agonist of SEQ ID NO: 1] | 3.2% | < 0.1% | < 0.1% |
| H[Aib]EGTFTSDYSIAMDEIHQKDFVDWLLAEC (bridge 16-20) [trigonal agonist of SEQ ID NO: 54] | 30.6% | 1.4% | 0.1% |
| H[Aib]QGTFTSDVSSYLLGQQQKEFIAWLVKGGGPSSGAPPPSC [trigonal agonist of SEQ ID NO: 5] | 42.1% | < 0.1% | < 0.1% |
